In article PMC3806761, “Characterization of the Akt2 Domain Essential for Binding Nuclear p21cip1 to Promote Cell Cycle Arrest during Myogenic Differentiation” (PLoS ONE, 2013):
One block for each binder: values may come before it.

What was measured:
[1] = target: T1, recombinant human p21cip1 (human, UniProt P38936 1-164); test: pull-down; purified His-tagged Akt2 proteins and His-tagged p21cip1 incubated together on ice; p21cip1 immunoprecipitated with anti-p21; immunoprecipitates probed for Akt2 by Western blot; conditions: both partners purified
T1 construct: In the functional row this molecule stands for p21cip1 endogenous in human myoblasts; source: recombinant, purified

[2] = target: T1, recombinant human p21cip1; test: pull-down; MBP-tagged Akt2 peptides bound to amylose resin, incubated with p21 (1 µg and 5 µg), extensively washed, maltose-fusion peptides eluted, blotted with anti-p21; conditions: both partners purified

T1 sequence (P38936 whole entry): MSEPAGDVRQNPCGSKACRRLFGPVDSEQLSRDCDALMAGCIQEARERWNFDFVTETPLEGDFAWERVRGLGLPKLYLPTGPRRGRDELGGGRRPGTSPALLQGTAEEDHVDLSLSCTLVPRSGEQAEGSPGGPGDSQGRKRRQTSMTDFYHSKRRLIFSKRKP

B1: Akt2 (400–481) (domain or fragment, human, UniProt P31751 400-481, looked up)
chain: AKEVMEHRFFLSINWQDVVQKKLLPPFKPQVTSEVDTRYFDDEFTAQSITITPPDRYDSLGLLELDQRTHFPQFSYSASIRE
notes: The tag is therefore uncertain; source: expressed in bacteria, purified; not shown: His6, C-terminal, kept
- binding result [1]: binds

B2: Akt2 (420–445) maltose binding fusion protein (domain or fragment, human, UniProt P31751 420-445, looked up)
chain: KKLLPPFKPQVTSEVDTRYFDDEFTA
notes: The methods name no vector for this construct
- binding result [2]: binds

Continued, values first:

- binding result [2]: binds
B3: Akt2 (400–445) maltose binding fusion protein (domain or fragment, human, UniProt P31751 400-445, looked up)
chain: AKEVMEHRFFLSINWQDVVQKKLLPPFKPQVTSEVDTRYFDDEFTA
notes: as for B2

- binding result [1]: binds
B4: Akt2 (350–481) (domain or fragment, human, UniProt P31751 350-481, looked up)
chain: FYNQDHERLFELILMEEIRFPRTLSPEAKSLLAGLLKKDPKQRLGGGPSDAKEVMEHRFFLSINWQDVVQKKLLPPFKPQVTSEVDTRYFDDEFTAQSITITPPDRYDSLGLLELDQRTHFPQFSYSASIRE
notes: as for B1
